Consider 15 molecules from patent US20060063223A1 (CHEMOCENTRYX, published 2006).

Experiment [1] deals with T1, human CCR1 (C-C chemokine receptor-1) (human, UniProt P32246 1-355).
T1 sequence (looked up): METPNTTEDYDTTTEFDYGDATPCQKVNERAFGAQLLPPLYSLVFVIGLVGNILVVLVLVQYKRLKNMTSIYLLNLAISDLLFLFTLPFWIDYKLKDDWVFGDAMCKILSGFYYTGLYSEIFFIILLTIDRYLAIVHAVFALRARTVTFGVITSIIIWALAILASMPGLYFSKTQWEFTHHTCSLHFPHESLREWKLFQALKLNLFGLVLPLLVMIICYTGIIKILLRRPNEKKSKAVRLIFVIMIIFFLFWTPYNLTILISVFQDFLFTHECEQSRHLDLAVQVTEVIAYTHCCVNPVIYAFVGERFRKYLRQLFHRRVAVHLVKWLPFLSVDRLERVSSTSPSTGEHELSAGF
Description: cell-based or functional assay.

Experiment [2] concerns the target T2, human FPRL1 (formyl peptide receptor like 1) (human, UniProt P25090 1-351).
T2 sequence (looked up): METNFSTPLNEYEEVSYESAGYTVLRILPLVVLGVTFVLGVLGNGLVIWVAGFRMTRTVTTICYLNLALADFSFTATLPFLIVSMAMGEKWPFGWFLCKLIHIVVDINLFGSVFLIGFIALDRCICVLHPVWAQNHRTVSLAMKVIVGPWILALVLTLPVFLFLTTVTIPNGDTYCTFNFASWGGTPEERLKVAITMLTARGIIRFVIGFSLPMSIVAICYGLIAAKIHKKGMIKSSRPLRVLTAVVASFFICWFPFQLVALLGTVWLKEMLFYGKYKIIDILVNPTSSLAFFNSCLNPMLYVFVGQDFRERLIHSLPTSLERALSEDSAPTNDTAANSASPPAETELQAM
Description: cell-based or functional assay.

Experiment [3] has as its target T1, human CCR1 (C-C chemokine receptor-1). In words: competition with 125I-MIP-1α on L1.2-CCR1 cells, 3 hr at 4° C., filter binding. The procedure: (§1) Binding assay. Competition binding studies were conducted using monocytes, L1.2-CCR1 or L1.2-FPRL1 cells. […] Reactions were aspirated onto PEI-treated GF/B glass filters using a cell harvester (Packard). Filters were washed twice (25 mM HEPES, 500 mM NaCl, 1 mM CaCl₂, 5 mM MgCl₂, adjusted to pH 7.1). Scintillant (MicroScint-10; 35 μl) was added to the filters and counted in a Packard Topcount scintillation counter. Data were analyzed and plotted using Prism (GraphPad Software, San Diego, Calif.).

Experiment [4] shares this target. In words: competition with 125I-MIP-1α on human monocytes, 3 hr at 4° C., filter binding. The procedure: as §1
The target is the same in experiment [5]. In words: competition with 125I-MIP-1α on L1.2-CCR1 cells. Here is the method:
as §1

In experiment [6] the target is T2, human FPRL1 (formyl peptide receptor …). Description: competition with 125I-WKYMVm on human monocytes, filter binding. The procedure:
as §1

For experiment [7] the target is unchanged. In words: competition with 125I-WKYMVm on L1.2-FPRL1 cells, filter binding. Here is the method:
as §1

The target in experiment [8] is T1, human CCR1 (C-C chemokine receptor-1). Description: competition with 125I-MIP-1α on human monocytes.

Some results are limits rather than exact numbers.

Take “CCL5/RANTES (from UniProt P13501 24-91) (ligand)”: in experiment [1], the EC50, THP-1 cell migration was determined as 500 pM and the fold decrease in potency in THP-1 cell chemotaxis relative to CCL15Δ24/LKN-1 amounted to 3 fold.

B1: CCL23α (CCL23/CKβ8, 22-120) (ligand)
chain: RVTKDAETEFMMSKLPLENPVLLDRFHATSADCCISYTPRSIPCSLLESYFETNSECSKPGVIFLTKKGRRFCANPSDKQVQVCMRMLKLDTRIKTRKN
On to B1, for which the “EC50, THP-1 cell chemotaxis” value in experiment [1] was 2500 pM.

B2: CCXP5 (peptide)
peptide: MLWRRKIGPQMT
Turning to B2, the “potency for receptor signaling in L1.2-FPRL1 cells, relative to SHAAGtide” value in experiment [2] came to 3 fold.

B3: CCL23/CKβ8 digested with chymase (ligand)
chain: HATSADCCISYTPRSIPCSLLESYFETNSECSKPGVIFLTKKGRRFCANPSDKQVQVCMRMLKLDTRIKTRKN
On to B3, for which, in experiment [1], the EC50, THP-1 cell chemotaxis turned out to be 50 pM and the fold decrease of EC50 against undigested CCL23/CKβ8, THP-1 cell chemotaxis came to 50 fold.

B4: CCL3/MIP-1α (ligand, UniProt P10147 27-92, looked up)
chain: ADTPTACCFSYTSRQIPQNFIADYFETSSQCSKPGVIFLTKRSRQVCADPSEEWVQKYVSDLELSA
modifications: also: 125I-labelled when used as tracer
Take B4: in experiment [1], the “EC50, THP-1 cell migration” value is 500 pM and the “fold decrease in potency in THP-1 cell chemotaxis relative to CCL15Δ24/LKN-1” value is ~3 fold. Besides, the IC50 (in general, the concentration at which inhibition is half-maximal) in experiment [3] was found to be 0.15 nM. In experiment [4], this molecule yielded an IC50 of 0.3 nM.

B5: CCL15/MIP-1δ digested with PMN sup #1 (ligand)
chain: VLNSFHFAADCCTSYISQSIPCSLMKSYFETSSECSKPGVIFLTKKGRQVCAKPSGPGVQDCMKKLKPYSI
On to B5, for which, in experiment [1], the EC50, THP-1 cell chemotaxis was found to be 250 pM.

B6: SHAAGtide lacking the N-terminal amino acid (Met) (peptide)
peptide: LWRRKIGPQMTLSHAAG
Consider B6, for which the “fold decrease in potency for receptor signaling in L1.2-FPRL1 cells, relative to SHAAGtide” value in experiment [2] was ~10 fold.

B7: CCL15/MIP-1δ digested with chymase (ligand)
chain: AADCCTSYISQSIPCSLMKSYFETSSECSKPGVIFLTKKGRQVCAKPSGPGVQDCMKKLKPYSI
Turning to B7, in experiment [1], the EC50, THP-1 cell chemotaxis is 50 pM and the fold increase of potency in THP-1 cell migration over full-length CCL15/MIP-1δ turned out to be 1000 fold.

B8: SHAAGtide (MLWRRKIGPQMTLSHAAG) (peptide)
peptide: MLWRRKIGPQMTLSHAAG
notes: Synthetic 18-residue peptide; also called CCXP1; SHAAGtide peptide
B8: the “EC50 in functional assays” value in experiment [2] is 10 to 30 nM. In addition, the binding result in experiment [5] is reported as “no binding”. Besides, the IC50 came to 10 nM in experiment [6] and 280 nM in experiment [7].

B9: CCL23β Δ24 (ligand)
chain: MLWRRKIGPQMTLSHAAGFHATSADCCISYTPRSIPCSLLESYFETNSECSKPGVIFLTKKGRRFCANPSDKQVQVCMRMLKLDTRIKTRKN
notes: Begins with the 18-residue SHAAGtide insertion; R&D Systems catalog item; also called CCLβΔ24
Consider B9, for which, in experiment [8], the “fold increase in binding activity over full-length CCL23β” value is > 10 fold. The IC50 in experiment [6] is 35 nM; in experiment [7] it was 210 nM; in experiment [3], 20 nM; in experiment [4] it was 4.5 nM.

B10: CCL23β (ligand)
chain: RVTKDAETEFMMSKLPLENPVLLDMLWRRKIGPQMTLSHAAGFHATSADCCISYTPRSIPCSLLESYFETNSECSKPGVIFLTKKGRRFCANPSDKQVQVCMRMLKLDTRIKTRKN
notes: 116-residue alternatively spliced form; recombinant, special order from R&D Systems; also called CKβ8-1
As to B10, the binding result in experiment [8] was “binds”.

B11: CCL15/MIP-1δ (92aa) (ligand)
chain: QFINDAETELMMSKLPLENPVVLNSFHFAADCCTSYISQSIPCSLMKSYFETSSECSKPGVIFLTKKGRQVCAKPSGPGVQDCMKKLKPYSI
For the molecule B11, the “EC50, THP-1 cell chemotaxis” value in experiment [1] is 50000 pM.

B12: CCL23/CKβ8 digested with PMN sup #1 (ligand)
chain: LLDRFHATSADCCISYTPRSIPCSLLESYFETNSECSKPGVIFLTKKGRRFCANPSDKQVQVCMRMLKLDTRIKTRKN
Take B12: the EC50, THP-1 cell chemotaxis in experiment [1] was determined as 150 pM.

B13: CCL15Δ24/LKN-1 (68aa) (ligand)
chain: SFHFAADCCTSYISQSIPCSLMKSYFETSSECSKPGVIFLTKKGRQVCAKPSGPGVQDCMKKLKPYSI
Take B13: the “EC50, THP-1 cell chemotaxis” value in experiment [1] is 60 pM.

B14: CCL23α Δ24 (CCL23Δ24/MPIF-1, 46-120) (ligand)
chain: RFHATSADCCISYTPRSIPCSLLESYFETNSECSKPGVIFLTKKGRRFCANPSDKQVQVCMRMLKLDTRIKTRKN
notes: Recombinant CCL23/CKβ8 lacking the N-terminal 24 residues
Consider B14, for which the “EC50, THP-1 cell chemotaxis” value in experiment [1] was 90 pM. The “fold increase in binding activity over full-length CCL23α” value in experiment [8] was > 10 fold.
